Consider four molecules from paper PMC8924070 (Frontiers in Immunology, 2022).

The Kd is the constant that tells how readily two partners part at equilibrium. The koff is the rate constant with which the complex falls apart. Low readings indicate slow dissociation, high ones fast dissociation.

Common to all, as to conditions: both partners purified
The target in experiment [1] is T1, PD-1-ECD (PD-1-E. coli), extracellular domain of programmed cell death protein 1 expressed in E. coli (Homo sapiens, UniProt Q15116).
T1 construct: PD-1 (programmed cell death protein 1), extracellular domain, UniProt Q15116, residues L25-R147; no glycan, no post-translational modification; Cloned into pET-21a(+); also called non-glycosylated PD-1
Nature of the experiment: SPR; BIAcore8000, CM5 chip, room temperature; cemiplimab-scFv (695 RU) or camrelizumab-scFv (569 RU) immobilised; PD-1 forms flowed over (PD-1-WT 0-100 nM, PD-1-N58A 50-800 nM, PD-1-E. coli 0-8 μM); 1:1 Langmuir model. In general terms: SPR reads the build-up and loss of mass on a sensor chip optically.

For experiment [2], the target named is T2, PD-1-N58A, extracellular domain of PD-1 (residues L25-R147) with N58A, expressed in 293F cells (Homo sapiens, UniProt Q15116, N58A, glycosylated in 293F cells, specifically deficient in N58 glycosylation).
T2 construct: programmed cell death protein 1 (PD-1), extracellular domain, residues L25-R147 of UniProt Q15116, N58A; also called N58A-mutated PD-1; N58 glycosylation-deficient PD-1; not shown: His6, C-terminal, kept
Nature of the experiment: SPR; cemiplimab-scFv (695 RU) or camrelizumab-scFv (569 RU) immobilised on a CM5 chip, PD-1 forms flowed over (PD-1-WT 0-100 nM, PD-1-N58A 50-800 nM, PD-1-E. coli 0-8 uM); BIAcore 8000, room temperature; 1:1 Langmuir binding model; mean of three repeats.

The target in experiment [3] is T3, PD-1-E. coli, extracellular domain of PD-1 (residues L25-R147) expressed in E. coli (Homo sapiens, UniProt Q15116).
T3 construct: programmed cell death protein 1 (PD-1), extracellular domain, residues L25-R147 of UniProt Q15116; no glycans (E. coli); Cloned into pET-21a(+); also called PD-1-ECD; non-glycosylated PD-1
The description is as above.

T2 sequence (Q15116 25-147 N58A): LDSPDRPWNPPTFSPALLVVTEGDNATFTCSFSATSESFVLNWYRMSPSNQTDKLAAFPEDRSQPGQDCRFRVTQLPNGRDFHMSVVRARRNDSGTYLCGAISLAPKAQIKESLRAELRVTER
T3 sequence (Q15116 25-147): as the sequence (Q15116 25-147 N58A) above, with A34N counted along it
T1 sequence (Q15116 25-147): as the sequence (Q15116 25-147 N58A) above, with A34N counted along it

B1: camrelizumab-scFv (scFv, V domains shown)
VH: EVQLVESGGGLVQPGGSLRLSCAASGFTFSSYMMSWVRQAPGKGLEWVATISGGGANTYYPDSVKGRFTISRDNAKNSLYLQMNSLRAEDTAVYYCARQLYYFDYWGQGTTVTVSS
VL: DIQMTQSPSSLSASVGDRVTITCLASQTIGTWLTWYQQKPGKAPKLLIYTATSLADGVPSRFSGSGSGTDFTLTISSLQPEDFATYYCQQVYSIPWTFGGGTKVEIK
notes: scFv of camrelizumab; Named only in the SPR methods
B1 yielded a dissociation constant Kd in experiment [1] of 2630 nM.

B2: camrelizumab-scFv (scFv, V domains shown)
VH: B1 VH
VL: B1 VL
notes: scFv of camrelizumab
For the molecule B2, the koff in experiment [2] stood at 0.171 s⁻¹; in experiment [3] it was 0.308 s⁻¹.

B3: cemiplimab-scFv (single-chain variable fragment of cemiplimab, VL-(GGGGS)4-VH) (scFv, V domains shown)
VH: EVQLLESGGVLVQPGGSLRLSCAASGFTFSNFGMTWVRQAPGKGLEWVSGISGGGRDTYFADSVKGRFTISRDNSKNTLYLQMNSLKGEDTAVYYCVKWGNIYFDYWGQGTLVTVSS
VL: DIQMTQSPSSLSASVGDSITITCRASLSINTFLNWYQQKPGKAPNLLIYAASSLHGGVPSRFSGSGSGTDFTLTIRTLQPEDFATYYCQQSSNTPFTFGPGTVVDFR
notes: VL of cemiplimab; linker, printed as GGGGS (4); VH of cemiplimab; Cloned into pET-21a(+); Used in the crystal and, by the SPR methods, immobilised on the CM5 chip; also called REGN2810; Libtayo
Molecule B3 gave a Kd in experiment [1] of 691 nM.

B4: cemiplimab-scFv, single-chain variable fragment of cemiplimab (VL-(GGGGS)4-VH) (scFv, V domains shown)
VH: B3 VH
VL: B3 VL
notes: VL of cemiplimab; structure of the cemiplimab-scFv/PD-1 complex deposited as PDB 7WVM; linker, printed as GGGGS (4); VH of cemiplimab; Cloned into pET-21a(+); also called REGN2810; Libtayo
For B4, the koff was 0.0274 s⁻¹ in experiment [2] and 0.047 s⁻¹ in experiment [3].
